Where “and” joins values, the source holds several entries; their conditions need not be identical. Identical values can stand only once.
How the values were obtained:
[1] = target: Lsm protein of Haloferax mediterranei (Haloferax mediterranei); assay: SEC; HiPrep 16/60 Sephacryl S-200 HR, 20 mM Tris-HCl pH 7.5, 2 M NaCl, 0.5 mL/min, calibrated with protein standards; without RNA
[2] = target: Lsm protein of Haloferax mediterranei (Haloferax mediterranei); assay: SEC; HiPrep 16/60 Sephacryl S-200 HR, 20 mM Tris-HCl pH 7.5, 1 M NaCl, 0.5 mL/min, calibrated with protein standards; without RNA
[3] = target: Lsm protein of Haloferax mediterranei (Haloferax mediterranei); assay: SEC; HiPrep 16/60 Sephacryl S-200 HR, 20 mM Tris-HCl pH 7.5, 1.5 M NaCl, 0.5 mL/min, calibrated with protein standards; without RNA; peaks checked by Western blot with anti-Lsm
[4] = target: Lsm protein of Haloferax mediterranei (Haloferax mediterranei); assay: SEC; HiPrep 16/60 Sephacryl S-200 HR, 20 mM Tris-HCl pH 7.5, 0.5 M NaCl, 0.5 mL/min, calibrated with protein standards; without RNA; peaks checked by Western blot with anti-Lsm

- stoichiometry N [1]: 36 subunits
- stoichiometry N [2]: 36 subunits
- stoichiometry N [3]: 72 subunits and 36 subunits
- stoichiometry N [4]: 36 subunits
Substance: Lsm protein of Haloferax mediterranei (natural protein)

From PMC10779274
